The numbers were not newly measured in PMC8151241, which cites them from elsewhere.

By Kd is commonly meant a measure of binding affinity in units of concentration.

Series [1] concerns the target PRK (Chlamydomonas reinhardtii) (UniProt P19824).
The target of series [2] is GAPDH (Chlamydomonas reinhardtii) (UniProt P50362).
The target in series [3] is CP12-GAPDH complex (Chlamydomonas reinhardtii) (UniProt A6Q0K5).

Sequence of UniProt P50362 (P50362 35-374): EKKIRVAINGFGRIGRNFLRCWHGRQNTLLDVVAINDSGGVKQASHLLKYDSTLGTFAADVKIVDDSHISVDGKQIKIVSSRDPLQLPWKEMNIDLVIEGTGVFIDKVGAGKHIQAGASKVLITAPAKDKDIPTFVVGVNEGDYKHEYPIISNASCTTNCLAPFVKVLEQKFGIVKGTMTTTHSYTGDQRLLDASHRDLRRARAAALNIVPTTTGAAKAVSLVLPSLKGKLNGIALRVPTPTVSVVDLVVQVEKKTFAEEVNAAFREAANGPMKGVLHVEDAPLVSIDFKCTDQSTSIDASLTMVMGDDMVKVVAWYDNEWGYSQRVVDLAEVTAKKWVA

With CP12 (from UniProt A6Q0K5), the Kd is 1300 nM in series [1] and 0.4 nM in series [2].

Turning to PRK (from UniProt P19824), the Kd in series [3] is 60 nM.
